Publication PMC11794253

Key:
[1] = biological target: human neonatal Fc receptor (hFcRn) (human) (UniProt P55899); experiment: SPR
[2] = biological target: His-tagged FcγRIIIa/CD16a extracellular domain (amino acids 17-208), V158 allotype (UniProt P08637); experiment: SPR
Chain of UniProt P08637 (P08637 17-208 F176V): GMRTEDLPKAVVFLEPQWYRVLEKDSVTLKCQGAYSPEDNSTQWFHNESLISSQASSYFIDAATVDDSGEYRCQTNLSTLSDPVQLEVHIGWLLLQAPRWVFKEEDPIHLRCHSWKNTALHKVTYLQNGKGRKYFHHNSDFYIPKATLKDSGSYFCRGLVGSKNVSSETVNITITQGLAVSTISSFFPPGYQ

Chain of UniProt P55899 (P55899 24-297, chain 1 of 2): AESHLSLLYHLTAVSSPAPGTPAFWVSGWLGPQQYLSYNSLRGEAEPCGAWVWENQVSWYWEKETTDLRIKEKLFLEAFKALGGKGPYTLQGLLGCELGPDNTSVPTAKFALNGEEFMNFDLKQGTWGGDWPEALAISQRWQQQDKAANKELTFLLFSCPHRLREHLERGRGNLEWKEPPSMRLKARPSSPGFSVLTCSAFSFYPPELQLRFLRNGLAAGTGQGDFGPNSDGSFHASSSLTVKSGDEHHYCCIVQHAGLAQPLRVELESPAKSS
Chain of UniProt P55899 (P61769 21-119, chain 2 of 2, further chain): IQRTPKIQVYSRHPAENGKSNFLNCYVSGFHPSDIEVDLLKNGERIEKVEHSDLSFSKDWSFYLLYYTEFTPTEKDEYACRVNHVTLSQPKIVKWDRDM

B1: COVA2-15 IgG1, wild type, produced in N. benthamiana ΔXT/FT (antibody, V domains shown)
VH: QVQLLESGGGLVQPGGSLRLSCAASGFTFSSYAMSWVRQAPGKGLEWASAISGSGGSTYYADSVEGRFTISRDNSKNTLYLQMNSLRAEDTAVYYCAKDTGYCGDDCYIKLIRGGPDYWGQGTLVTVSS
VL: DIVMTQSPLSLPVTLGQPASISCRSSQSLVYSDGNTFLNWFQQRPGQSPRRLIYQVSNRDSGVPDRFSGSGSGTDFTLKISRVEAEDVGVYYCMQGTHWPRTFGQGTKLEIK
- kon [1]: 389000 M⁻¹ s⁻¹
- Kd ([1]; KD from steady-state analysis): 344 nM
- Kd ([1]; kinetic 1:1 binding model fit): 196 nM
- kon [2]: 306000 M⁻¹ s⁻¹
- Kd ([2]; from kinetic rate constants): 127 nM
- Kd ([2]; steady-state analysis): 259 nM
